Results from patent US20180021429A1, “ANTICANCER AGENTS OR ANTIMETASTATIC AGENTS USING FSTL1 AND COMBINATION DRUG THEREOF” (PHARMA FOODS INTERNATIONAL CO., LTD., priority 2015, published 2018).

How the values were obtained:
[1] = system: mouse colorectal cancer CT26 cells; assay: Mouse colorectal cancer CT26 cell-transplanted model (Example 20); assay type: in vivo
Description: Procedures and methods of the experiment were basically performed under substantially the same conditions as in the bone metastasis model experiments of Examples 17 to 19 except that bone metastasis was not evaluated. Specifically, drug efficacy evaluation was conducted using mouse tumor models other than Snail-positive tumor bone metastasis models. The drug efficacy of the anti-FSTL1 antibody was evaluated using cancer-bearing models of BALB/c mice different in strain from the C57BL/6 mice used in the preceding tests. The test was conducted by changing only the amount of tumor implanted, antibody administration timing, and assay timing. • Day 0: transplantation of tumor cells (5×10^5 cells subcutaneously & 5×10^5 cells intravenously) Days 4 and 7: intraperitoneal administration of the antibody (10 mg/kg) • Day 14: drug efficacy evaluation (subcutaneous tumor growth (FIG. 108A) and lung metastasis (FIG. 108B)) For lung metastasis, the number of metastatic nodules in the lung was macroscopically counted. The tumor volumes of the mice were measured 7, 11, and 14 days after tumor implantation.

[2] = system: Panc1-snail+; assay: Action of anti-FSTL1 antibody on Panc1-snail+ cells forced to express Snail (invasion, CCR2 and RANKL expression); assay type: cell-based, human; details: antibody 5 μg/ml
Description: Cell invasion was evaluated in the presence of the anti-FSTL1 antibody (#6-55, 5 μg/ml) or a control antibody (aHema, 5 μg/ml) in a chamber using Panc1-snail+, a cell line forced to express Snail, instead of the FSTL1-stimulated tumor cells of the preceding paragraph.
In this Example, Panc1-snail+ cells were cultured for 3 days in the presence of the added antibody. Then, the expression of CCR2 and RANKL among molecules known as bone metastasis markers was analyzed by flow cytometry. […] The anti-FSTL1 antibody presumably has inhibitory activity against cell invasion (FIG. 50D).
In this Example, Panc1-snail+ cells were cultured for 3 days in the presence of the added antibody. Then, the expression of CCR2 and RANKL among molecules known as bone metastasis markers was analyzed by flow cytometry. […] The anti-FSTL1 antibody presumably has inhibitory activity against cell invasion (FIG. 82D).

[3] = molecular target: T1, FSTL1 (Homo sapiens, UniProt Q12841); assay: Treg induction inhibitory activity using human peripheral blood cells stimulated with FSTL1; assay type: cell-based; set-up: purchased R&D Systems, Inc. 1694-FN-050; details: human PBMCs; FSTL1 5 ng/ml; antibody 5 μg/mL; 3 days
T1 sequence (Q12841 21-308): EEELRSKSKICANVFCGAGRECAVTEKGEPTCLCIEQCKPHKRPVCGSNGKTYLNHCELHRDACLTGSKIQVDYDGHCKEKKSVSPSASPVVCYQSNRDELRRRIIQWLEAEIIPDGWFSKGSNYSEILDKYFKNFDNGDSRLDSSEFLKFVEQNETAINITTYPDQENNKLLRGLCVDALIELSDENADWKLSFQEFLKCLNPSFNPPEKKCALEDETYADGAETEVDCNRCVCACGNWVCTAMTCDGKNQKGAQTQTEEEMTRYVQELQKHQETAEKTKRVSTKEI
Description: Human peripheral blood cells (1×10^6 cells) were stimulated using FSTL1 (5 ng/ml), supplemented with the antibody (5 μg/mL), and cultured for 3 days. The percentage of a Foxp3^+CTLA4^+ cell fraction (Exp. 1) or a CD4^+Foxp3^+CTLA4^+ cell fraction (Exp. 2) in CD4^+ T cells was analyzed as Treg cells by flow cytometry. The flow cytometry conditions are as follows.
Blood was collected from a healthy person by the addition of a 1/10 amount of 4% sodium citrate, then layered on Ficoll (specific gravity: 1.090), and centrifuged (1500 rpm, 20 min, room temperature), and a cell fraction present in an intermediate layer was used as “PBMCs”. The antibody (5 μg/mL) was added to a system in which these PBMCs (1×10^6 cells) were cultured for 3 days under stimulation with FSTL1 (5 ng/ml) in a 24-well plate. […] Then, the percentage of a Foxp3+CTLA4+ cell fraction (Exp. 1) or a CD4^+Foxp3^+CTLA4^+ cell fraction (Exp. 2) in CD4+ T cells contained therein was analyzed as Treg cells using a flow cytometer FACScan (Becton, Dickinson and Company).
Human peripheral blood cells (1×10^6 cells) were stimulated using FSTL1 (5 ng/ml), supplemented with the antibody (5 μg/mL), and cultured for 3 days. The percentage of a Foxp3^+ CTLA4^+ cell fraction (Exp. 1) or a CD4^+Foxp3^+CTLA4^+ cell fraction (Exp. 2) in CD4^+ T cells was analyzed as Treg cells by flow cytometry. […]

[4] = system: mouse melanoma B16-F10; assay: Mouse melanoma B16-F10 model, subcutaneous and intravenous transplantation (Example 22); assay type: in vivo; details: intraperitoneal 10 mg/kg on days 3 and 6; FIG. 110
Description: The drug efficacy of the anti-FSTL1 antibody was evaluated according to Examples 17 to 20 using other cancer-bearing models of C57BL/6 mice of the same strain as in Snail-positive tumor bone metastasis models. The “mouse melanoma B16-F10” is a parent line of the cell line forced to express Snail, which was transplanted in the bone metastasis models used in the preceding tests.
1. Experiment Group (n=5) • 1. Mouse melanoma B16-F10+control IgG (anti-DNP mAb) • 2. Mouse melanoma B16-F10+anti-FSTL1 mAb (#6-55)
• Day 0: transplantation of tumor cells (1×10^6 cells subcutaneously & 1×10^6 cells intravenously) • Day 3: intraperitoneal administration of the antibody (first dose, corresponding to 200 μg/mouse=10 mg/kg) • Day 6: intraperitoneal administration of the antibody (second dose, corresponding to 200 μg/mouse=10 mg/kg) • Day 15 various immunological assays
• Effects on the growth of subcutaneous tumor (calculation of tumor volume by tumor size measurement): measured 6, 10, and 14 days after tumor implantation (FIG. 110A) • Effects on weight loss (FIG. 110B)

B1: #6-55: chicken-mouse chimeric anti-FSTL1 antibody clone; variable regions SEQ ID NO: 783 (light), 785 (heavy) (antibody, V domains shown)
VH: AVTLDESGGGLQTPGGALSLVCKGSGFTFTSVTMQWVRQAPGKGLEWVASVCSGSSTYYAPAVKGRATISRDNGQSTVRLQLSNLRPEDTGTYYCAKIAGRARWSCTSAAYNIDAWGHGTEVIVSS
VL: ASTQPSSVSAIPGETVKITCSGGGNNYGWYQQRSPGSAPVTVIYYNDNRPSNIPSRFSGSTSGSTSTLTITGVQADDEAIYYCGSWDSNTDSGIFGAGTTLTVL
modifications: mouse constant regions
growth and lung metastasis of CT26 subcutaneous tumor ([1]; BALB/c mice, intraperitoneal 10 mg/kg on days 4 and 7, day 14, FIG. 108): very strongly suppressed | number of metastatic nodules in the lung ([1]; day 14, control antibody group 14 nodules on average, FIG. 108B): 0 to 3 nodules | disappearance of solid tumor (mice) ([1]; n=5, intraperitoneal 10 mg/kg on days 4 and 7): three out of the five mice | cell invasion [2]: suppressive activity was able to be confirmed | Treg induction caused by FSTL1 (Foxp3+CTLA4+ fraction in CD4+ T cells) [3]: significantly suppressed | subcutaneous tumor growth [4]: strongly suppressed | weight loss [4]: suppressive activity against weight loss was also exhibited
